Results from paper PMC8996488 (Journal of molecular biology, 2021).

T1: RecB subunit of E. coli RecBCD (134 kDa) (E. coli, UniProt P08394 1-1180)
T1 sequence (looked up): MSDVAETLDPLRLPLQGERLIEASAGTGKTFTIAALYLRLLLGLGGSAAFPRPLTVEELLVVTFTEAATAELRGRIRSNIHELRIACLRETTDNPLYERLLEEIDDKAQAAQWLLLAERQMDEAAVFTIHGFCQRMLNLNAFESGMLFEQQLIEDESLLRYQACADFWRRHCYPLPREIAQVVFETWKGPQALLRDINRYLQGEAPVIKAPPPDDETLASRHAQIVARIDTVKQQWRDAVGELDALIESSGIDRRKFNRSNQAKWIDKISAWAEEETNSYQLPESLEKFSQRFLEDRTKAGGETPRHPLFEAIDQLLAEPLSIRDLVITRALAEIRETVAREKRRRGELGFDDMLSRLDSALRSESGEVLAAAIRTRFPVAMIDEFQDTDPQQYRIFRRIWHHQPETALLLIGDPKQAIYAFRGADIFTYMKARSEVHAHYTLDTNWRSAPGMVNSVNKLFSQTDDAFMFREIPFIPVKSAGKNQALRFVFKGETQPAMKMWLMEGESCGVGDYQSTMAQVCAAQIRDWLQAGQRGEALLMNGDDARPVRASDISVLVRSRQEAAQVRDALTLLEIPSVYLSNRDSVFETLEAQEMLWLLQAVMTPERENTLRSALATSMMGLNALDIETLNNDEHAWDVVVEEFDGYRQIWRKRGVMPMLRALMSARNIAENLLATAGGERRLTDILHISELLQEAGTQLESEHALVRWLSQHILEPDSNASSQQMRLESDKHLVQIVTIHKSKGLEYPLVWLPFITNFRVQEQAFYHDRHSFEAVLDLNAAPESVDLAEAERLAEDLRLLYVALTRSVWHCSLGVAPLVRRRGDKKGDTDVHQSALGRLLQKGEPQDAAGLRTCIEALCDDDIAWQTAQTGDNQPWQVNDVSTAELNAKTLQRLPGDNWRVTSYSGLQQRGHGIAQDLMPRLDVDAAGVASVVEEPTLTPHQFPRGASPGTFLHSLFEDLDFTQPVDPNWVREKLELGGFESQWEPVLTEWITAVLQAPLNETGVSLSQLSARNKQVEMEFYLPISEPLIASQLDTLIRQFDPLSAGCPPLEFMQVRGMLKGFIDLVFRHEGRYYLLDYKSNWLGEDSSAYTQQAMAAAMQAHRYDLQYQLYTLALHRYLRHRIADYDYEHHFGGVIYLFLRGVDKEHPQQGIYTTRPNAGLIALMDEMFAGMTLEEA

B1: RecC subunit of E. coli RecBCD (natural protein, UniProt P07648 1-1122, looked up)
chain: MLRVYHSNRLDVLEALMEFIVERERLDDPFEPEMILVQSTGMAQWLQMTLSQKFGIAANIDFPLPASFIWDMFVRVLPEIPKESAFNKQSMSWKLMTLLPQLLEREDFTLLRHYLTDDSDKRKLFQLSSKAADLFDQYLVYRPDWLAQWETGHLVEGLGEAQAWQAPLWKALVEYTHQLGQPRWHRANLYQRFIETLESATTCPPGLPSRVFICGISALPPVYLQALQALGKHIEIHLLFTNPCRYYWGDIKDPAYLAKLLTRQRRHSFEDRELPLFRDSENAGQLFNSDGEQDVGNPLLASWGKLGRDYIYLLSDLESSQELDAFVDVTPDNLLHNIQSDILELENRAVAGVNIEEFSRSDNKRPLDPLDSSITFHVCHSPQREVEVLHDRLLAMLEEDPTLTPRDIIVMVADIDSYSPFIQAVFGSAPADRYLPYAISDRRARQSHPVLEAFISLLSLPDSRFVSEDVLALLDVPVLAARFDITEEGLRYLRQWVNESGIRWGIDDDNVRELELPATGQHTWRFGLTRMLLGYAMESAQGEWQSVLPYDESSGLIAELVGHLASLLMQLNIWRRGLAQERPLEEWLPVCRDMLNAFFLPDAETEAAMTLIEQQWQAIIAEGLGAQYGDAVPLSLLRDELAQRLDQERISQRFLAGPVNICTLMPMRSIPFKVVCLLGMNDGVYPRQLAPLGFDLMSQKPKRGDRSRRDDDRYLFLEALISAQQKLYISYIGRSIQDNSERFPSVLVQELIDYIGQSHYLPGDEALNCDESEARVKAHLTCLHTRMPFDPQNYQPGERQSYAREWLPAASQAGKAHSEFVQPLPFTLPETVPLETLQRFWAHPVRAFFQMRLQVNFRTEDSEIPDTEPFILEGLSRYQINQQLLNALVEQDDAERLFRRFRAAGDLPYGAFGEIFWETQCQEMQQLADRVIACRQPGQSMEIDLACNGVQITGWLPQVQPDGLLRWRPSLLSVAQGMQLWLEHLVYCASGGNGESRLFLRKDGEWRFPPLAAEQALHYLSQLIEGYREGMSAPLLVLPESGGAWLKTCYDAQNDAMLDDDSTLQKARTKFLQAYEGNMMVRGEGDDIWYQRLWRQLTPETMEAIVEQSQRFLLPLFRFNQS

Experiments:
[1] = target: T1, RecB subunit of E. coli RecBCD (134 kDa); assay: AUC
[2] = target: B1; assay: AUC

binding result [1]	binding result [2]	Binder
binds	–	B1
binds	binds	RecD subunit of E. coli RecBCD (enzyme, UniProt P04993 1-608, looked up) MKLQKQLLEAVEHKQLRPLDVQFALTVAGDEHPAVTLAAALLSHDAGEGHVCLPLSRLENNEASHPLLATCVSEIGELQNWEECLLASQAVSRGDEPTPMILCGDRLYLNRMWCNERTVARFFNEVNHAIEVDEALLAQTLDKLFPVSDEINWQKVAAAVALTRRISVISGGPGTGKTTTVAKLLAALIQMADGERCRIRLAAPTGKAAARLTESLGKALRQLPLTDEQKKRIPEDASTLHRLLGAQPGSQRLRHHAGNPLHLDVLVVDEASMIDLPMMSRLIDALPDHARVIFLGDRDQLASVEAGAVLGDICAYANAGFTAERARQLSRLTGTHVPAGTGTEAASLRDSLCLLQKSYRFGSDSGIGQLAAAINRGDKTAVKTVFQQDFTDIEKRLLQSGEDYIAMLEEALAGYGRYLDLLQARAEPDLIIQAFNEYQLLCALREGPFGVAGLNERIEQFMQQKRKIHRHPHSRWYEGRPVMIARNDSALGLFNGDIGIALDRGQGTRVWFAMPDGNIKSVQPSRLPEHETTWAMTVHKSQGSEFDHAALILPSQRTPVVTRELVYTAVTRARRRLSLYADERILSAAIATRTERRSGLAALFSSRE
